# Measured values published in IntAct's records for PubMed 22111578.
# B1: ADP-ribosylation factor 5 (Mus musculus), P84084 (parent)
# chain: MGLTVSALFSRIFGKKQMRILMVGLDAAGKTTILYKLKLGEIVTTIPTIGFNVETVEYKNICFTVWDVGGQDKIRPLWRHYFQNTQGLIFVVDSNDRERVQESADELQKMLQEDELRDAVLLVFANKQDMPNAMPVSELTDKLGLQHLRSRTWYVQATCATQGTGLYDGLDWLSHELSKR
# B2: ADP-ribosylation factor 4 (Mus musculus), P61750 (parent)
# chain: MGLTISSLFSRLFGKKQMRILMVGLDAAGKTTILYKLKLGEIVTTIPTIGFNVETVEYKNICFTVWDVGGQDKIRPLWRHYFQNTQGLIFVVDSNDRERIQEGAAVLQKMLLEDELQDAVLLLFANKQDLPNAMAISEMTDKLGLQSLRNRTWYVQATCATQGTGLYEGLDWLSNELSKR
# Variants of: B1
# Settings: with caps2_mouse Cadps2, Q8BYR5
row,effect of a mutation on the interaction,Variant
1,disrupting interaction,Q71L

# Variants of: B1
# Settings: with caps2_mouse Cadps2, Q8BYR5
# Remark: another data set of the same source
# Target sequence in this assay (Q8BYR5 whole entry): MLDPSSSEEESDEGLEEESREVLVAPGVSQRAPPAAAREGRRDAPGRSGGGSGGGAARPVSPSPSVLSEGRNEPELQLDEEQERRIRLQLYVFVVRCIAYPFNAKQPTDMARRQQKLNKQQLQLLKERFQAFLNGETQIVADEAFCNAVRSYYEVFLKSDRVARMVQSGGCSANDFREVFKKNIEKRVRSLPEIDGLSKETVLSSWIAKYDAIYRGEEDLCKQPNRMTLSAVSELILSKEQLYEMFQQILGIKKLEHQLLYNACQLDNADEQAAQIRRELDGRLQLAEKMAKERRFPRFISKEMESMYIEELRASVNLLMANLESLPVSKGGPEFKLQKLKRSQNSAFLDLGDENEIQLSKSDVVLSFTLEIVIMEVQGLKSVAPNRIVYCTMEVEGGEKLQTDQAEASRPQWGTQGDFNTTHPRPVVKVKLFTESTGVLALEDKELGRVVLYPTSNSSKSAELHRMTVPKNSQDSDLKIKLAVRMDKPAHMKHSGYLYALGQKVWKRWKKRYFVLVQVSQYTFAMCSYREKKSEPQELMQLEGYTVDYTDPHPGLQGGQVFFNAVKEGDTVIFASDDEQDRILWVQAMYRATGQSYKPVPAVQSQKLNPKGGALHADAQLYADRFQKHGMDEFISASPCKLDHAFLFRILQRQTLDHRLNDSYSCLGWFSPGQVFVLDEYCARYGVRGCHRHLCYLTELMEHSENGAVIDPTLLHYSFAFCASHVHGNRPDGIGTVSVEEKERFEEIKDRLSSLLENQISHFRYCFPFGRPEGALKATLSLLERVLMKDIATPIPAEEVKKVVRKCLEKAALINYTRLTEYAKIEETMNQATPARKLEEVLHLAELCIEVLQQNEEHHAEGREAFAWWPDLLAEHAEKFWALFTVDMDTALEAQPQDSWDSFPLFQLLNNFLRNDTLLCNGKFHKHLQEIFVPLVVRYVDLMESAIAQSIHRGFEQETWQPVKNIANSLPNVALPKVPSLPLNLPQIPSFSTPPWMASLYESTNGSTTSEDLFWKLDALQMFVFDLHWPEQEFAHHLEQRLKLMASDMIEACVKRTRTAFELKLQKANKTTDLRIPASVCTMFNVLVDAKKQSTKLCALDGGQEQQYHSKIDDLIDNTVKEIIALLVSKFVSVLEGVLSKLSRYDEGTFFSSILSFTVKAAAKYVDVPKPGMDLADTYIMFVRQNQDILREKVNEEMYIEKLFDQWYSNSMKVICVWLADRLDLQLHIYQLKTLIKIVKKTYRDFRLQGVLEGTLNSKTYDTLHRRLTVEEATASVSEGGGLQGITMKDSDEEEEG
row,effect of a mutation on the interaction,Variant
1,disrupting interaction,S6A

# Variants of: B1
# Settings: with caps2_mouse Cadps2, Q8BYR5
# Remark: another data set of the same source
# Target sequence in this assay (Q8BYR5 whole entry): as above
row,effect of a mutation on the interaction,Variant
1,increasing interaction,T31N

# Variants of: B2
# Settings: with caps2_mouse Cadps2, Q8BYR5
# Target sequence in this assay (Q8BYR5 whole entry): as above
row,effect of a mutation on the interaction,Variant
1,disrupting interaction,Q71L

# Variants of: B2
# Settings: with caps2_mouse Cadps2, Q8BYR5
# Remark: another data set of the same source
# Target sequence in this assay (Q8BYR5 whole entry): as above
row,effect of a mutation on the interaction,Variant
1,increasing interaction,T31N
